# Measurements taken from patent US20250051463A1, “CD123 ANTIBODY-DRUG CONJUGATES AND METHODS OF USING THE SAME” (ASTRAZENECA AB, priority 2023, published 2025).
# Tested on: healthy donor BMMC
# Assay: Colony forming unit (CFU) assay
# Assay type: cell-based, human
# Conditions: 24 hours treatment, colonies at 14 days
# Description: The potency of HT12-GL ADC (HT12-GL-SG3932) was compared to CD33 Mylotarg ADC and isotype ADC in colony forming unit (CFU) assays. For colony forming unit assays, primary healthy donor samples and AML patient samples were subjected to a dose titration of HT12-GL ADC (HT12-GL-SG3932), Isotype ADC, or Mylotarg for 24 hours. Cells were subsequently mixed in Methocult (StemCell) and seeded in 6-well SmartDish's (StemCell). Colonies were counted at 14 days post-seeding using a STEMvision instrument (StemCell). EC50 values were calculated based on the reduction of colonies following drug treatment compared to control groups.
substance,measurement,value
Mylotarg: CD33 ADC Mylotarg [reference compound],CFU toxicity in healthy donor BMMC,toxic
